From article PMC12521702, “Development of a trispecific fusion protein based on angiotensin-converting enzyme 2, glycoprotein 130, and tumor necrosis factor receptor 2 as a promising therapeutic for COVID-19” (Molecular Biomedicine, 2025)

Legend:
human Hyper-IL-6 = human Hyper-IL-6 (human, UniProt P08887 20-355); experiment: ELISA; plates coated with 2 μg/mL Hyper-IL-6-His in carbonate-bicarbonate buffer pH 9.6; serial dilutions of fusion proteins from 50 nM, 1 h at 37 °C; HRP anti-human IgG; conditions: both partners purified
mouse Hyper-IL-6 = biological target: T1, mouse Hyper-IL-6 (mouse, UniProt P22272;P08505); experiment: as above; conditions: both partners purified
T1 construct: also called murine Hyper-IL-6; Hyper-IL-6-His; not shown: His tag, C-terminal, kept
T1 chain: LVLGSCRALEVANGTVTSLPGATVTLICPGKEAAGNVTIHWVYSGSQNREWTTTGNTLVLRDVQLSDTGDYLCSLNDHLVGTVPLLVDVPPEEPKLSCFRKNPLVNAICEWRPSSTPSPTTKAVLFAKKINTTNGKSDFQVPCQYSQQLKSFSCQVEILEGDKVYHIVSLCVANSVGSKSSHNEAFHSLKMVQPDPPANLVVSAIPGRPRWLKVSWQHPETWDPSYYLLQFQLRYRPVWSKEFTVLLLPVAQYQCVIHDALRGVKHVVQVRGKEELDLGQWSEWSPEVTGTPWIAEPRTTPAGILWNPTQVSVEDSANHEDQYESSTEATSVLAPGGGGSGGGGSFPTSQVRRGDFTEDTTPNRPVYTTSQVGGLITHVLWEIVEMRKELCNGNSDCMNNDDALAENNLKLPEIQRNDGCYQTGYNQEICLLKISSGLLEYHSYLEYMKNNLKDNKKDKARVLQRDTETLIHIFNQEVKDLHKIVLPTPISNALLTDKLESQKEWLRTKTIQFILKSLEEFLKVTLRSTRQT

B1: ACE2 (M)-Fc-hGP130 (Fc fusion)
chain: QSTIEEQAKFFLDYFNHEAEDLFYQSSLASWNYNTNITEENVQNMNNAGDKWSAFLKEQSTWAQMYPLQEIQNLTVKLQLQALQQNGSSVLSEDKSKRLNTILNTMSTIYSTGKVCNPDNPQECLLLEPGLNEIMANSLDYNERLWAWESWRSEVGKQLRPLYEEYVVLKNEMARANHYEDYGDYWRGDYEVNGVDGYDYSRGQLIEDVEHTFEEIKPLYEHLHAYVRAKLMNAYPSYISPIGCLPAHLLGDMWGQFWTNLYSLTVPFGQKPNIDVTDAMVDQAWDAQRIFKEAEKFFVSVGLPNMTQGFWEYSMLTDPGNVQKAVCHPTAWDLGKGDFRILMCTKVTMDDFLTAHHEMGHIQYDMAYAAQPFLLRNGANEGFHEAVGEIMSLSAATPKHLKSIGLLSPDFQEDNETEINFLLKQALTIVGTLPFTYMLEKWRWMVFKGEIPKDQWMKKWWEMKREIVGVVEPVPHDETYCDPASLFHVSNDYSFIRYYTRTLYQFQFQEALCQAAKHEGPLHKCDISNSTEAGQKLFNMLRLGKSEPWTLALENVVGAKNMNVRPLLNYFEPLFTWLKDQNKNSFVGWSTDWSPYADQSIKVRISLKSALGDKAYEWNDNEMYLFRSSVAYAMRQYFLKVKNQMILFGEEDVRVANLKPRISFNFFVTAPKNVSDIIPRTEVEKAIRMSRSRINDAFRLNDNSLEFLGIQPTLGPPNQPPVSGGGGSGGGGSGGGGSELLDPCGYISPESPVVQLHSNFTAVCVLKEKCMDYFHVNANYIVWKTNHFTIPKEQYTIINRTASSVTFTDIASLNIQLTCNILTFGQLEQNVYGITIISGLPPEKPKNLSCIVNEGKKMRCEWDGGRETHLETNFTLKSEWATHKFADCKAKRDTPTSCTVDYSTVYFVNIEVWVEAENALGKVTSDHINFDPVYKVKPNPPHNLSVINSEELSSILKLTWTNPSIKSVIILKYNIQYRTKDASTWSQIPPEDTASTRSSFTVQDLKPFTEYVFRIRCMKEDGKGYWSDWSEEASGITYEDRPSKAPSFWYKIDPSHTQGYRTVQLVWKTLPPFEANGKILDYEVTLTRWKSHLQNYTVNATKLTVNLTNDRYLATLTVRNLVGKSDAAVLTIPACDFQATHPVMDLKAFPKDNMLWVEWTTPRESVKKYILEWCVLSDKAPCITDWQQEDGTVHRTYLRGNLAESKCYLITVTPVYADGPGSPESIKAYLKQAPPSKGPTVRTKKVGKNEAVLEWDQLPVDVQNGFIRNYTIFYRTIIGNETAVNVDSSHTEYTLSSLTSDTLYMVRMAAYTDEGGKDGPEFTFTTPKFAQGEIE
Q: With B1 as the binder, how does the EC50 (human Hyper-IL-6) read?
A: 1.55 nM

B2: ACE2 (M)-Fc-mGP130 (Fc fusion)
chain: QSTIEEQAKFFLDYFNHEAEDLFYQSSLASWNYNTNITEENVQNMNNAGDKWSAFLKEQSTWAQMYPLQEIQNLTVKLQLQALQQNGSSVLSEDKSKRLNTILNTMSTIYSTGKVCNPDNPQECLLLEPGLNEIMANSLDYNERLWAWESWRSEVGKQLRPLYEEYVVLKNEMARANHYEDYGDYWRGDYEVNGVDGYDYSRGQLIEDVEHTFEEIKPLYEHLHAYVRAKLMNAYPSYISPIGCLPAHLLGDMWGQFWTNLYSLTVPFGQKPNIDVTDAMVDQAWDAQRIFKEAEKFFVSVGLPNMTQGFWEYSMLTDPGNVQKAVCHPTAWDLGKGDFRILMCTKVTMDDFLTAHHEMGHIQYDMAYAAQPFLLRNGANEGFHEAVGEIMSLSAATPKHLKSIGLLSPDFQEDNETEINFLLKQALTIVGTLPFTYMLEKWRWMVFKGEIPKDQWMKKWWEMKREIVGVVEPVPHDETYCDPASLFHVSNDYSFIRYYTRTLYQFQFQEALCQAAKHEGPLHKCDISNSTEAGQKLFNMLRLGKSEPWTLALENVVGAKNMNVRPLLNYFEPLFTWLKDQNKNSFVGWSTDWSPYADQSIKVRISLKSALGDKAYEWNDNEMYLFRSSVAYAMRQYFLKVKNQMILFGEEDVRVANLKPRISFNFFVTAPKNVSDIIPRTEVEKAIRMSRSRINDAFRLNDNSLEFLGIQPTLGPPNQPPVSGGGGSGGGGSGGGGSQLLEPCGYIYPEFPVVQRGSNFTAICVLKEACLQHYYVNASYIVWKTNHAAVPREQVTVINRTTSSVTFTDVVLPSVQLTCNILSFGQIEQNVYGVTMLSGFPPDKPTNLTCIVNEGKNMLCQWDPGRETYLETNYTLKSEWATEKFPDCQSKHGTSCMVSYMPTYYVNIEVWVEAENALGKVSSESINFDPVDKVKPTPPYNLSVTNSEELSSILKLSWVSSGLGGLLDLKSDIQYRTKDASTWIQVPLEDTMSPRTSFTVQDLKPFTEYVFRIRSIKDSGKGYWSDWSEEASGTTYEDRPSRPPSFWYKTNPSHGQEYRSVRLIWKALPLSEANGKILDYEVILTQSKSVSQTYTVTGTELTVNLTNDRYVASLAARNKVGKSAAAVLTIPSPHVTAAYSVVNLKAFPKDNLLWVEWTPPPKPVSKYILEWCVLSENAPCVEDWQQEDATVNRTHLRGRLLESKCYQITVTPVFATGPGGSESLKAYLKQAAPARGPTVRTKKVGKNEAVLAWDQIPVDDQNGFIRNYSISYRTSVGKEMVVHVDSSHTEYTLSSLSSDTLYMVRMAAYTDEGGKDGPEFTFTTPKFAQGEIE
Q: B2 was tested. Which EC50 (mouse Hyper-IL-6) did it give?
A: 1.83 nM
